Patent publication US20190233498A1 (H LUNDBECK A S, published 2019)

T1: human PACAP27 (human, C-terminal leucine is amidated; 125I-labelled in Example 10)
T1 peptide: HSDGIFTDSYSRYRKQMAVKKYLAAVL

T2: human PACAP38 (human, not fully specified; C-terminal lysine is amidated; N-terminal or C-terminal biotin in the HTRF and PC-12 cell binding assays)
T2 construct: synthetic peptide, bought; also called huPACAP (1-38)
T2 peptide: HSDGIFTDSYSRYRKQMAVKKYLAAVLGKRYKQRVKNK

T3: human VIP (human)
T3 construct: also called Vasoactive Intestinal Peptide
T3 peptide: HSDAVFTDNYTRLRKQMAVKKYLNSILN


Assays:
human PACAP27 [1] = target: T1, human PACAP27; experiment: SPR, Ab immobilised
Experimental: [The procedure below names another target; the source says it served here with some conditions changed.] (§1) Binding affinities of monoclonal antibodies for human PACAP were estimated using SPR on the PROTEON™ XPR36 (Bio-Rad, Hercules, Calif.). Antibody was immobilized to the surface of general amine coupling (“GLC” or “GLM”) Chips (Bio-Rad, Hercules, Calif.). A dilution series of human PACAP38 (SEQ ID NO: 1241) prepared in 1×PBST Buffer (4.3 mM Na Phosphate, 1.4 mM K Phosphate, 135 mM NaCl, 2.7 mM KCl 0.05% Polysorbate-20) purchased from Teknova (Cat# P1192, Teknova, Hollister, Calif.) and supplemented with 0.25 M arginine (from J.T. BAKER®), 0.2 mg/ml BSA (Jackson Immuno Research Labs, West Grove, Pa.), and 0.005% sodium azide (VWR International, Radnor, Pa.) with the pH adjusted to 7 was used to query the antibodies. Antigen (ranging from 1.23 nM to 100 nM) was typically run sequentially with association times of 2-4 minutes and dissociation times of 3-120 minutes grouped with the PROTEON™ Manager Software (v3.1.0.6 (Bio-Rad, Hercules, Calif.)) and fitted using a 1:1 Langmuir binding model. Surfaces were regenerated between analyte queries using 0.85% Phosphoric Acid.

human PACAP38 [2] = target: T2, human PACAP38; experiment: SPR, Ab immobilised
Experimental: as §1

human PACAP38 [3] = target: T2, human PACAP38; experiment: HTRF binding, biotin-PACAP38
Experimental: In parallel, 10 μl of an antibody dilution series (highest final concentration of 100 nM) were incubated with 10 μl of N-terminal or C-terminal biotinylated PACAP38 (35 nM final) alone, or in combination with either PACAP27 (350 nM final) or VIP (350 nM final), i.e., 10× PACAP27 or 10×VIP, respectively, in a HTRF plate. 20 μl of Eu³⁺ cryptate labeled anti-hu Fc donor and 20 μl of d2-labeled streptavidin acceptor were added to each well and incubated for 1 hour at room temperature. Fluorescence was measured at 620 and 665 nm with a delay of 300 μsec.
EC₅₀ values, i.e. the concentration of an antibody that yields a response halfway between the baseline and the maximum value within a specified time period, were computed for each antibody based upon their binding curves and are shown in Table 1 below. […] A humanized form of antibody Ab1 was produced and is identified by an appended “.H”, i.e., Ab1.H, and it also bound PACAP38 with high affinity.

human PACAP38 [4] = target: T2, human PACAP38; experiment: cell-based or functional assay
human PACAP27 [5] = target: T1, human PACAP27; experiment: cell-based or functional assay
human PACAP38 [6] = target: T2, human PACAP38; experiment: inhibition of 100 nM biotin-PACAP38 binding to PC-12 cells, TRF
Experimental: To identify antibodies that block PACAP38 binding to PAC1-R-expressing cells, adherent PC-12 cells (ATCC, Manassas, Va.) expressing PAC1-R were used in a Europium-based PAC1-R expressing cells binding assay.
Antibody solutions were incubated with N-terminal biotinylated PACAP38 at 10× the final concentration (100 nM or 30 nM) for 1 hr, then added to PC-12 cells that were plated 24 hrs. prior in black clear bottom 96 well plates (COSTAR™, Corning Incorporated, Corning, N.Y.) and further incubated for 1 hr at room temperature. After three washes, the cells were incubated with 20 μl Europium-labeled streptavidin (PerkinElmer, Waltham, Mass.) for 1 hr at room temperature. Cells were washed three times, then 20 μl DELFIA® Enhancement solution (PerkinElmer, Waltham, Mass.) was added to each well and incubated for 15 minutes with gentle shaking. Plates were read (Time Resolved Fluorescence (“TRF”)) on SPECTRAMAX® (Molecular Devices, Sunnyvale, Calif.) plate reader.
FIGS. 14A-14BB are representative of the inhibition curves obtained by this method (results are shown for Ab1, Ab2, Ab3, Ab4, Ab5, Ab6, Ab7, Ab8, Ab9, Ab10, Ab11, Ab12, Ab13, Ab14, Ab15, Ab16, Ab17, Ab18, Ab19, Ab1.H, Ab10.H, Ab22, Ab23, Ab3.H, Ab4.H, Ab5.H, Ab9.H, and Ab12.H, respectively) wherein the PAC1-R expressing cells were PC-12 cells.

human PACAP38 [7] = target: T2, human PACAP38; experiment: cell-based or functional assay
human PACAP38 [8] = target: T2, human PACAP38; experiment: cell-based or functional assay
human VIP = target: T3, human VIP; experiment: SPR, Ab immobilised
Experimental: [The procedure below names another target; the source says it served here with some conditions changed.] as §1

Row | Binder | Kd (human PACAP27 [1]) [pM] | koff (human PACAP27 [1]) [s⁻¹] | Kd (human PACAP38 [2]) [pM] | koff (human PACAP38 [2]) [s⁻¹] | EC50 (human PACAP38 [3]) [µM] | IC50, 0.1 nM PACAP38-induced PAC1-R mediated cAMP increase (human PACAP38 [4]) [pM] | IC50, 0.1 nM PACAP27-induced PAC1-R mediated cAMP increase (human PACAP27 [5]) [pM] | IC50 (human PACAP38 [6]) [µM] | IC50, 1 nM PACAP38-induced human VPAC2-R mediated cAMP increase (human PACAP38 [7]) [µM] | IC50, 5 nM PACAP38-induced human VPAC1-R mediated cAMP increase (human PACAP38 [8]) [µM] | kon (human PACAP38 [2]) [M⁻¹ s⁻¹] | kon (human PACAP27 [1]) [M⁻¹ s⁻¹] | Kd (human VIP) [µM] | koff (human VIP) [s⁻¹] | kon (human VIP) [M⁻¹ s⁻¹]
1 | anti-PACAP antibody Ab10.H (antibody, V domains shown) VH: EVQLVESGGGLVQPGGSLRLSCAASGIDLNSYYMTWVRQAPGKGLEWIGFIDAGGDAYYASWAKGRFTISRDNSKNTVYLQMNSLRAEDTAVYFCARDLDLWGQGTLVTVSS VL: DAQLTQSPSTLSASVGDRVTITCQSSESVYGNYLAWFQQKPGKAPKFLIYEASKLESGVPSRFSGSGSGTEFTLTISSLQPDDFATYYCAGGDISEGVAFGGGTKVEIKR | – | – | 29 | 1e-05 | – | – | – | – | – | – | – | – | – | – | –
2 | anti-PACAP antibody Ab13 (antibody, human IgG1, kappa, N297A, V domains shown, full-length rabbit/human chimeric antibody) VH: QSVEESGGRLVTPGTPLTLTCTVSGFSLSSAAMNWVRQAPGKGLEWIGIIDNTAGTYYAPWAKGRFTISKTSSTTVDLKMTSPTTEDTATYFCARGGGEFFIWGPGTLVTVSS VL: AQVLTQTPSSVSAAVGGTVTINCQSSQSVHDGSYLSWYQQKPGQPPNFLIYQASNLASGVPSRFKGSGSGTQFTLTISDLECDDAATYYCAGGYSSNICGFGGGTEVVVKR | 120 | 6.6e-05 | 64 | 2.7e-05 | 0.00048 | 82.4 | 74.1 | 0.0531 | 0.000652 | 0.00218 | 420000 | 540000 | 0.14 | 0.046 | 320000
3 | anti-PACAP antibody Ab11 (antibody, human IgG1, kappa, N297A, V domains shown, full-length rabbit/human chimeric antibody) VH: QSVEESGGRLVTPGTPLTLTCTASGFSLSRYAMGWVRQAPGKGLEWIGDISTYGTTDYASWVNGRFTISRTSTTVTLKMTSLTTEDTATYFCARDYWLSLWGQGTLVTVSS VL: AAVLTQTPSPVSAAVGGTVTIKCQSSQSVYDNNALAWYQQKPGQPPKLLIYAASNLASGVPDRFSGSGSGTQFTLTISGVQCDDAATYYCLGGYDDAADNAFGGGTEVVVKR | 420 | 0.00011 | 110 | 3.1e-05 | 0.00053 | 56.7 | 109 | 0.0246 | 0.000265 | 0.000541 | 270000 | 260000 | 0.23 | 0.047 | 200000
4 | anti-PACAP antibody Ab12 (antibody, human IgG1, kappa, N297A, V domains shown, full-length rabbit/human chimeric antibody) VH: QSVEESGGRLVTPGTPLTLTCTASGFSLSSYAMGWVRQAPGKGLEWIGDISTYGTTDYASWVYGRFTISRTSTTVTLKMTSLTTEDTATYFCARDYWLSLWGQGTLVTVSS VL: AAVLTQTPSPVSAAVGGTVTIKCQSSQSVYDNNALAWYQQKPGQPPKLLIYAASTLASGVPSRFSGSGSGTEFTLTISGVQCDDAATYYCLGGYYDPADNAFGGGTEVVVKR | 70 | 2.1e-05 | ≤ 32 | ≤ 1e-05 | 0.00051 | 51.1 | 60.4 | 0.0226 | 0.000179 | 0.000292 | 310000 | 290000 | 0.0082 | 0.0024 | 290000
5 | anti-PACAP antibody Ab7 (antibody, human IgG1, kappa, N297A, V domains shown, full-length rabbit/human chimeric antibody) VH: QSVEESGGRLVTPGTPLTLTCTASGIDLSGYAMGWVRQAPGKGLEWIGDISTYGTTDYASWVNGRFTISRTSTTVTLKMTSLTTEDTATYFCARDYWLSLWGPGTLVTVSS VL: AAVLTQTPSPVSAAVGGTVTIKCQSSQSVYDNNALAWYQQKPGQPPKLLIYAASTLASGVPSRFKGSGSGTQFTLTINGVQCDDAATYYCLGGYDDPADNAFGGGTEVVVKR | 200 | 4.5e-05 | ≤ 56 | ≤ 1e-05 | 0.00045 | 111 | 45.8 | 0.022 | 0.000162 | 0.000687 | 180000 | 230000 | 0.034 | 0.0088 | 260000

The next lines start with the values.

Row | Kd (human PACAP27 [1]) [pM] | koff (human PACAP27 [1]) [s⁻¹] | Kd (human PACAP38 [2]) [pM] | koff (human PACAP38 [2]) [s⁻¹] | EC50 (human PACAP38 [3]) [µM] | IC50, 0.1 nM PACAP38-induced PAC1-R mediated cAMP increase (human PACAP38 [4]) [pM] | IC50, 0.1 nM PACAP27-induced PAC1-R mediated cAMP increase (human PACAP27 [5]) [pM] | IC50 (human PACAP38 [6]) [µM] | IC50, 1 nM PACAP38-induced human VPAC2-R mediated cAMP increase (human PACAP38 [7]) [µM] | IC50, 5 nM PACAP38-induced human VPAC1-R mediated cAMP increase (human PACAP38 [8]) [µM] | kon (human PACAP38 [2]) [M⁻¹ s⁻¹] | kon (human PACAP27 [1]) [M⁻¹ s⁻¹] | Kd (human VIP) [µM] | koff (human VIP) [s⁻¹] | kon (human VIP) [M⁻¹ s⁻¹] | Binder
6 | 10 | 1e-05 | – | – | – | – | – | – | – | – | – | – | – | – | – | anti-PACAP antibody Ab10 (antibody, V domains shown) VH: QSVEESGGRLVTPGTPLTLTCTVSGIDLNSYYMTWVRQAPGKGLEWIGFIDAGGDAYYASWAKGRFTISKTSTTVDLKITSPTTEDTATYFCARDLDLWGQGTLVTVSS VL: AAVLTQTPSPVSAAVGGTVTINCQSSESVYGNYLAWFQQKPGQPPKLLIYEASKLESGVPSRFSGSGSGTQFTLTISDLQCDDAATYYCAGGDISEGVAFGGGTEVVVKR
7 | 74 | 2e-05 | ≤ 31 | ≤ 1e-05 | 0.00057 | 154 | 95.7 | 0.0179 | 0.00084 | 0.00263 | 320000 | 270000 | 0.25 | 0.067 | 270000 | anti-PACAP antibody Ab14 (antibody, human IgG1, kappa, N297A, V domains shown, full-length rabbit/human chimeric antibody) VH: QSVEASGGRLVTPGTPLTLTCTVSGFSLSSAAMNWVRQAPGKGLEWIGFIEYSKNIVYASWAKGRFTISKVSSTTVDLKMTSPTTEDTATYFCARGGGEFFIWGQGTLVTVSS VL: AQVLTQTPSSVSAAVGGTVTINCQSSQSVYSNNRLSYYQQKPGQPPKLLIYEASSLAYGVPSRFKGSGSGTQFTLTISDLECDDAATYYCAGAYSNSIYSFGGGTEVVVKR
8 | 370 | 0.00014 | 160 | 4.2e-05 | 0.00045 | 227 | 90 | 0.0172 | 0.000667 | 0.00174 | 260000 | 370000 | 100000 | 0.1 | – | anti-PACAP antibody Ab3 (antibody, human IgG1, kappa, N297A, V domains shown, full-length rabbit/human chimeric antibody) VH: QEQLVESGGGLVQPEGSLTLTCTASGFSFSSSDYMCWVRQAPGKGLEWIGCIDAGSSGDTYFASWAKGRFTISKTSSTTVTLQMTSLTAADTATYFCARHLYGSITFAFGLWGQGTLVTVSS VL: AAVLTQTPSPVSAAVGGTVTINCQASQSIGSDLAWYQQKPGQPPKLLIYDASTLASGVPSRFSGSGSGTQFTLTISGVQCDDAATYYCQGTYYSSGWYTAFGGGTEVVVKR
